Assay results taken from patent publication US20090004190A1, “Rage Fusion Proteins And Methods Of Use” (priority 2006, published 2009).

Legend:
Details in all cases: ligand 5 micrograms per well; FIG. 7
[1] = target: T1, amyloid-beta (Abeta) (Amyloid Beta (1-40)) (Homo sapiens, UniProt P05067); assay: In vitro ligand binding (ELISA) to immobilized amyloid-beta
T1 construct: Amyloid Beta (1-40) from Biosource; purchased Biosource
Method: (§1) For example, the RAGE fusion protein may be used in a binding assay to identify potential RAGE ligands. In one example embodiment of such a binding assay, a known RAGE ligand may coated onto a solid substrate (e.g., Maxisorb plates) at a concentration of about 5 micrograms per well, where each well contains a total volume of about 100 microliters (μL). The plates may be incubated at 4° C. overnight to allow the ligand to absorb. Alternatively, shorter incubation periods at higher temperature (e.g., room temperature) may be used. […] The RAGE fusion protein bound to the immobilized ligand may be detected in a variety of ways. […] The bound complex may be detected by adding the alkaline phosphatase substrate, para-nitrophenylphosphate (PNPP), and measuring conversion of PNPP to para-nitrophenol (PNP) as an increase in absorbance at 405 nm. […] In the absence of ligand (i.e., coating with only BSA) there was no increase in absorbance. […] Binding was detected by the addition of an immunodetection complex containing a monoclonal mouse anti-human IgG1 diluted 1:11,000 to a final assay concentration (FAC) of 21 ng/100 μL, a biotinylated goat anti-mouse IgG diluted 1:500, to a FAC of […], and an avidin-linked alkaline phosphatase. […]

S100b (S100) = target: T2, S100b (S100) (Homo sapiens, UniProt P04271); assay: In vitro ligand binding (ELISA) to immobilized S100b
T2 sequence (P04271 1-92): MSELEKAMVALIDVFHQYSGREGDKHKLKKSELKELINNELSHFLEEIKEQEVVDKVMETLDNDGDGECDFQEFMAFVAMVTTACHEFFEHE
Method: as §1

amphoterin (Ampho) = target: T3, amphoterin (Ampho) (Homo sapiens, UniProt P09429); assay: In vitro ligand binding (ELISA) to immobilized amphoterin
T3 sequence (P09429 1-215): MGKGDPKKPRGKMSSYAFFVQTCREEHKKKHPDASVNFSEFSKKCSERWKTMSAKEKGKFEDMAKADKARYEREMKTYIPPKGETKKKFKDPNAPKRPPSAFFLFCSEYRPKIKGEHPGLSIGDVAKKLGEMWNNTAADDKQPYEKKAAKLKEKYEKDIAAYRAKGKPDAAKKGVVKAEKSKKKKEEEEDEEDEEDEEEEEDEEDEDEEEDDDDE
Method: as §1

T1 sequence (P05067 672-711): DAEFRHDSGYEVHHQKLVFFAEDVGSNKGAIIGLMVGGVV

B1: TTP-4000: four domain RAGE fusion protein: human RAGE V and C1 domains with interdomain linkers (to residue 251) fused to human IgG1 CH2 and CH3; SEQ ID NO: 34/56 (protein, listed as Homo sapiens)
chain: QNITARIGEPLVLKCKGAPKKPPQRLEWKLNTGRTEAWKVLSPQGGGPWDSVARVLPNGSLFLPAVGIQDEGIFRCQAMNRNGKETKSNYRVRVYQIPGKPEIVDSASELTAGVPNKVGTCVSEGSYPAGTLSWHLDGKPLVPNEKGVSVKEQTRRHPETGLFTLQSELMVTPARGGDPRPTFSCSFSPGLPRHRALRTAPIQPRVWEPVPLEEVQLVVEPEGGAVAPPSVFLFPPKPKDTLMISRTPEVTCVVVDVSHEDPEVKFNWYVDGVEVHNAKTKPREEQYNSTYRVVSVLTVLHQDWLNGKEYKCKVSNKALPAPIEKTISKAKGQPREPQVYTLPPSRDELTKNQVSLTCLVKGFYPSDIAVEWESNGQPENNYKTTPPVLDSDGSFFLYSKLTVDKSRWQQGNVFSCSVMHEALHNHYTQKSLSLSPGK
specifically interact: binding to immobilized amyloid-beta (absorbance at 405 nm) [1] | binding to immobilized S100b (absorbance at 405 nm) (S100b (S100)) | binding to immobilized amphoterin (absorbance at 405 nm) (amphoterin (Ampho))
